Reference: PMC9614494, “Glutamate 1-semialdehyde aminotransferase is connected to GluTR by GluTR-binding protein and contributes to the rate-limiting step of 5-aminolevulinic acid synthesis” (The Plant Cell, 2022)

B1: recombinant 6xHis-GSAAT (enzyme)
chain: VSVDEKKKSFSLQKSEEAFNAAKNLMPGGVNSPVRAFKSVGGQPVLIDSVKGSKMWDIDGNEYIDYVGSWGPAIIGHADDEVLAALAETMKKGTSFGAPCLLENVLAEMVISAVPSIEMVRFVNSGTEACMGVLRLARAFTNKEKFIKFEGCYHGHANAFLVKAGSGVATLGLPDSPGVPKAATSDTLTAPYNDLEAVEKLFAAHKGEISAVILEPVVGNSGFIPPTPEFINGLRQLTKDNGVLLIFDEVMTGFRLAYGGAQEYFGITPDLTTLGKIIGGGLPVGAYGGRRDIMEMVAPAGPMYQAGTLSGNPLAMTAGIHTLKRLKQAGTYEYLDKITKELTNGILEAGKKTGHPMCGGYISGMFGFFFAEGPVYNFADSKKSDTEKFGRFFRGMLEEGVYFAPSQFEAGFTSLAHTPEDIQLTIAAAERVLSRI

What was measured:
Settings in all cases: both partners purified
[1] = molecular target: T1, recombinant 6xHis-GluTR (Arabidopsis thaliana, UniProt P42804 62-543); assay: MST; 6xHis-GSAAT labelled with RED-NHS 2nd generation as target, 6xHis-GluTR titrated; Monolith NT.115, 30°C, PBS
T1 construct: Glutamyl-tRNA reductase (GluTR), Arabidopsis thaliana; Named only in the results on MST; the methods on purification list only GST-GluTR

[2] = molecular target: T2, labelled 6xHis-GBP incubated with GluTR (GBP/GluTR) (Arabidopsis thaliana, UniProt Q9LU39 43-317; P42804 62-543, RED-NHS 2nd generation dye); assay: MST; 6xHis-GBP labelled with RED-NHS 2nd generation as target, with or without GluTR, ligand in 1:1 dilutions from 5 nM to 110 µM; Monolith NT.115, 30°C, 40% LED power, PBS
T2 construct: as m7; Glutamyl-tRNA reductase (GluTR), Arabidopsis thaliana; The sentence on this titration says only GluTR; 6xHis-GluTR is named for the titration before it; source: recombinant proteins mixed before the titration (6xHis-GBP: E. coli Rosetta 2, purified)

[3] = molecular target: B1; assay: as above

| Binder | Kd [1] | Kd [2] | Kd [3] |
| --- | --- | --- | --- |
| B1 | 3000 nM | 940 nM | – |
| recombinant 6xHis-GBP (natural protein, Arabidopsis thaliana, UniProt Q9LU39 43-317, looked up, Labelled with the dye RED-NHS 2nd generation where it was the MST target; unlabelled in the in vitro pull-down; also called 6× His-GBP; source: E. coli Rosetta 2, purified (Ni-NTA)) SVSTTLDTPATASTHKPFPAEVSRSIMELSSVGTLSTLTHDGWPLGVGVRFAVDKDGTPVLCLNRSVSPDKRSALHVQLEQCGLRTPQCTIQGSIGRPGDDTVLKRLSATWREKFGEEVKEDSLYVVAVDRVLQMEDFMEDGIWVASSDYKNASPDPLRDIAEDIVNQINANNMEDIFRFCNVYVDLDFVVSETKMIWMDRLGFDLRVWSPRGVYDVRIPFPMEVTDEKGAKSSFNGMSQLAWEVEKSYCPADFNKVKLLKQVVGSSHSHKGGGQ | – | – | 178 nM |
